# Source: patent US20150037356A1 (AstraZeneca / MedImmune, published 2015)
# B1: A9E8 monoclonal antibody (mouse IgG1 format) (antibody, V domains shown)
# VH: QLQLQESGPGLVKPSETLSLTCAVSGASISNWWSWVRQPPGKGLEWIGEVHHSGVTTYKPSLKSRVTISVDNSKNQLSLKLTSVTAADTAVYYCAREFADDAFDIWGRGTMVTVSS
# VL: SSELTQDPAVSVALGQTVRITCRGDSLRKYYASWYQQKPRQAPQLVIYHKNNRASGIPDRFSGSISGNTASLTITGAQAEDEAAYFCNSRDTSGNYLVFGGGTKVTVLG
# notes: VH and VL from the phage scFv were cloned into a mouse IgG1 backbone and expressed as complete mouse IgG1; also called A9E8 antibody
# Columns and labels:
# [1] = target: T1, endogenous Siglec-15 on leukaemic cell lines (human, UniProt Q6ZMC9 20-328); assay: cell-based or functional assay
# T1 sequence (looked up): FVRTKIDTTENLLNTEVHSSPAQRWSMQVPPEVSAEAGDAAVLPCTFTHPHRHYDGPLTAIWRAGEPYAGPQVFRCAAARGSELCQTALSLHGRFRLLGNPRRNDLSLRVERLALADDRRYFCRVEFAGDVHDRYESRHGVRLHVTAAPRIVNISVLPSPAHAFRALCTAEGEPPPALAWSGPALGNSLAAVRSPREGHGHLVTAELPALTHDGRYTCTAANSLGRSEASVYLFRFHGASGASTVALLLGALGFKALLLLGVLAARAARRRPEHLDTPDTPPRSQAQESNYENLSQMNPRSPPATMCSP
# Siglec-9 on U937 cells = target: T2, Siglec-9 on U937 cells (UniProt Q9Y336 18-463, limits assumed); assay: FACS on U937 cells
# T2 construct: whole, on cells
# CD33 on U937 cells = target: T3, CD33 on U937 cells (UniProt P20138 18-364, limits assumed); assay: FACS on U937 cells
# T3 construct: whole, on cells
# Siglec-5 on U937 cells = target: T4, Siglec-5 on U937 cells (UniProt O15389 17-551, limits assumed); assay: FACS on U937 cells
# T4 construct: whole, on cells
# T4 sequence (looked up): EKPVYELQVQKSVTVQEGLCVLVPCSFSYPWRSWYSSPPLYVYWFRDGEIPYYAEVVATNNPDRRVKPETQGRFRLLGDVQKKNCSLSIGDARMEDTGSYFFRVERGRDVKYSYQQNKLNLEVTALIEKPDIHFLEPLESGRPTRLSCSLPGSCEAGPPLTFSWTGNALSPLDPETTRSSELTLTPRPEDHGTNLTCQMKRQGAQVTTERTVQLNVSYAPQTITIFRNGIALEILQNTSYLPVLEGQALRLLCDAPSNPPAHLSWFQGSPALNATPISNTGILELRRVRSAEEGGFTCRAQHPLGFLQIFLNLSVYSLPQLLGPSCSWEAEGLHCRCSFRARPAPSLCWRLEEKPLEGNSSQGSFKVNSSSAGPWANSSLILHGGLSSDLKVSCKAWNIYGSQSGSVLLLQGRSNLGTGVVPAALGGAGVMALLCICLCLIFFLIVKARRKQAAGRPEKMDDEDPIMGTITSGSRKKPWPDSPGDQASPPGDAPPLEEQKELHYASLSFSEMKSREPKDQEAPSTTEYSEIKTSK
# T2 sequence (Q9Y336 18-463 limits assumed): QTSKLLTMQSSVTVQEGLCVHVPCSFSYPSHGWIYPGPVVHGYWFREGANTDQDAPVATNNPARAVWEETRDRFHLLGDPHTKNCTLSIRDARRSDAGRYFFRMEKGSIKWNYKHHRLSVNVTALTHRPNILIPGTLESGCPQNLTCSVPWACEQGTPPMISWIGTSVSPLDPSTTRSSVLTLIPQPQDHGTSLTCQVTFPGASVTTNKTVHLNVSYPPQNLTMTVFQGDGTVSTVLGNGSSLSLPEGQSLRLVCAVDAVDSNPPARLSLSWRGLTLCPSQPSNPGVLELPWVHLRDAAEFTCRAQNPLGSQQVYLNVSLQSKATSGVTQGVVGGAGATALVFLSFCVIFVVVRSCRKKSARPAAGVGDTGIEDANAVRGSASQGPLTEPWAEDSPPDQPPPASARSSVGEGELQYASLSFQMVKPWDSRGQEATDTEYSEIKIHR
# T3 sequence (P20138 18-364 limits assumed): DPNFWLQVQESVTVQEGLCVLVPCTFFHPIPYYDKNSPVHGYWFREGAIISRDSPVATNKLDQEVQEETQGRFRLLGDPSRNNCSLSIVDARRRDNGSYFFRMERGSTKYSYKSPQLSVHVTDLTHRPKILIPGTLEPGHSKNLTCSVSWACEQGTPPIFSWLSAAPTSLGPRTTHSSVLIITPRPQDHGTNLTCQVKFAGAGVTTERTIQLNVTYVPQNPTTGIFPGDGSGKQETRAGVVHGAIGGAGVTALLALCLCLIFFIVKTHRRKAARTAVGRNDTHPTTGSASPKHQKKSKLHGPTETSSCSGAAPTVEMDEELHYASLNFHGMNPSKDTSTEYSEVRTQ
binder,measurement,setting,value
B1,half-life of endocytosis,[1],2.9 min
same,binding result,Siglec-9 on U937 cells,no binding
same,binding result,CD33 on U937 cells,no binding
same,binding result,Siglec-5 on U937 cells,no binding
